This assay concerns the target pCMV-BD-DLC-1 (human) (UniProt Q96QB1). The assay is described as follows: two-hybrid.
Sequence of UniProt Q96QB1 (Q96QB1 whole entry): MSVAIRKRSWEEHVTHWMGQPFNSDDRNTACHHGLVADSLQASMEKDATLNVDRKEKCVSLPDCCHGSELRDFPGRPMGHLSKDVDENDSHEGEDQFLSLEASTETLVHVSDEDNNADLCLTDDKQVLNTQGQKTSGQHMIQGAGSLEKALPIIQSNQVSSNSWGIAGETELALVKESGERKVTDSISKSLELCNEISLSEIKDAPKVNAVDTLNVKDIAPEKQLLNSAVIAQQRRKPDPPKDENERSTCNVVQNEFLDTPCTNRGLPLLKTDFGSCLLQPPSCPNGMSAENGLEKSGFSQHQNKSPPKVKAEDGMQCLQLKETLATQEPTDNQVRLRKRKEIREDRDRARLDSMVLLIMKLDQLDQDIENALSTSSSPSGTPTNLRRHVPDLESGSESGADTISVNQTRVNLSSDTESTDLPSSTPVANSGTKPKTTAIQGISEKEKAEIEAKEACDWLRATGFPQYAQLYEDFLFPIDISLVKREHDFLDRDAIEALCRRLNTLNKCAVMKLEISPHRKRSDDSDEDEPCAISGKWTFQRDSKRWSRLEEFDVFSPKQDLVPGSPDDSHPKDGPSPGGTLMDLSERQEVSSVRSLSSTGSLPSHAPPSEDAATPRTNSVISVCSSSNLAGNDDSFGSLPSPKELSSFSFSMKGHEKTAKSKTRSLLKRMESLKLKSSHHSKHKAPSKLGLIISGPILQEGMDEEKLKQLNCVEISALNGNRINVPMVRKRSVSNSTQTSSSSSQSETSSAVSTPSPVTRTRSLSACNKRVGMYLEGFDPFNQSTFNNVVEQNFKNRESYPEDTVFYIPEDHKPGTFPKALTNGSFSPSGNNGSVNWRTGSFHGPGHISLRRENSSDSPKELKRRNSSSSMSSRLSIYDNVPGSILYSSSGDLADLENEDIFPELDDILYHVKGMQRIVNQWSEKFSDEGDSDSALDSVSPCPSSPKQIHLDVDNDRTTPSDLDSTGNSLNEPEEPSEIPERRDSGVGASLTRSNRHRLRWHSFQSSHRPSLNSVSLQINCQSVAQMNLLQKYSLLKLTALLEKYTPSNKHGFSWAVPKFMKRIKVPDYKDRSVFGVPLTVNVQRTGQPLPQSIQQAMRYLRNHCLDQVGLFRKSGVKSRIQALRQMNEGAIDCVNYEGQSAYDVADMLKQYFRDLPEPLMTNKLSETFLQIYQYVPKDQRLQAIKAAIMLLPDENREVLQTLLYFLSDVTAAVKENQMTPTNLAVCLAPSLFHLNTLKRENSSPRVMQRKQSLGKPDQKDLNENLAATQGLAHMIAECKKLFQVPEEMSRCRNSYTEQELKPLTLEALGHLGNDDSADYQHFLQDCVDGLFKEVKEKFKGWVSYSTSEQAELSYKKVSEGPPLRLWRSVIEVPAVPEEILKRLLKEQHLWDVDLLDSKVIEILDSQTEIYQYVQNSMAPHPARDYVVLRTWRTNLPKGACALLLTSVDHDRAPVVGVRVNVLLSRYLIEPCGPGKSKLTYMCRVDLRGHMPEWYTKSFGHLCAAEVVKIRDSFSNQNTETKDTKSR

Regarding “pCMV-AD-cten (from UniProt Q8IZW8 1-715) (natural protein)”, the fold enhancement of luciferase activity was determined as 4 fold.

Source of the values: paper PMC2063623.
